We go through two substances from article PMC8654365.

The target of assay [1] is HA-tagged RON (Recepteur d'Origine Nantais, MST1R) stably expressed in A431 cells (human). Briefly: two-colour single quantum dot tracking with two-state hidden Markov model; live A431^RON cells; 200 pM anti-HA-QD655 on HA-RON, then 50 pM QD605-conjugated EGF-biotin on endogenous EGFR; 34–36 °C, 20 frames per s; off-rate of hetero-interactions.
Assay [2] has the same target. Briefly: two-colour single quantum dot tracking with two-state hidden Markov model; live A431^RON cells, no ligand; HA-RON labelled with a mixture of anti-HA-QD605 and anti-HA-QD655 (monovalent Fab); 34–36 °C, 20 frames per s; off-rate of RON/RON homo-interactions.

HA-tagged RON (Recepteur d'Origine Nantais, MST1R) stably expressed in A431 cells (human), sequence (Q04912 25-304 limits assumed, chain 1 of 2): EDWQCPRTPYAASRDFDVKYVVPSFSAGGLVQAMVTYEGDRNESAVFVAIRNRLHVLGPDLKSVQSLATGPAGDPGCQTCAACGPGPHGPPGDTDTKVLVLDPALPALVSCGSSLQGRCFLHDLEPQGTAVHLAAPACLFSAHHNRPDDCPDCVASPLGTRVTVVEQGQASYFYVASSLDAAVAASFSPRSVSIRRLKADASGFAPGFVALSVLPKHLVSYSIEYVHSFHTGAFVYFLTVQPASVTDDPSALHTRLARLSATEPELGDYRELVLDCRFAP
HA-tagged RON (Recepteur d'Origine Nantais, MST1R) stably expressed in A431 cells (human), sequence (Q04912 310-1400 limits assumed, chain 2 of 2): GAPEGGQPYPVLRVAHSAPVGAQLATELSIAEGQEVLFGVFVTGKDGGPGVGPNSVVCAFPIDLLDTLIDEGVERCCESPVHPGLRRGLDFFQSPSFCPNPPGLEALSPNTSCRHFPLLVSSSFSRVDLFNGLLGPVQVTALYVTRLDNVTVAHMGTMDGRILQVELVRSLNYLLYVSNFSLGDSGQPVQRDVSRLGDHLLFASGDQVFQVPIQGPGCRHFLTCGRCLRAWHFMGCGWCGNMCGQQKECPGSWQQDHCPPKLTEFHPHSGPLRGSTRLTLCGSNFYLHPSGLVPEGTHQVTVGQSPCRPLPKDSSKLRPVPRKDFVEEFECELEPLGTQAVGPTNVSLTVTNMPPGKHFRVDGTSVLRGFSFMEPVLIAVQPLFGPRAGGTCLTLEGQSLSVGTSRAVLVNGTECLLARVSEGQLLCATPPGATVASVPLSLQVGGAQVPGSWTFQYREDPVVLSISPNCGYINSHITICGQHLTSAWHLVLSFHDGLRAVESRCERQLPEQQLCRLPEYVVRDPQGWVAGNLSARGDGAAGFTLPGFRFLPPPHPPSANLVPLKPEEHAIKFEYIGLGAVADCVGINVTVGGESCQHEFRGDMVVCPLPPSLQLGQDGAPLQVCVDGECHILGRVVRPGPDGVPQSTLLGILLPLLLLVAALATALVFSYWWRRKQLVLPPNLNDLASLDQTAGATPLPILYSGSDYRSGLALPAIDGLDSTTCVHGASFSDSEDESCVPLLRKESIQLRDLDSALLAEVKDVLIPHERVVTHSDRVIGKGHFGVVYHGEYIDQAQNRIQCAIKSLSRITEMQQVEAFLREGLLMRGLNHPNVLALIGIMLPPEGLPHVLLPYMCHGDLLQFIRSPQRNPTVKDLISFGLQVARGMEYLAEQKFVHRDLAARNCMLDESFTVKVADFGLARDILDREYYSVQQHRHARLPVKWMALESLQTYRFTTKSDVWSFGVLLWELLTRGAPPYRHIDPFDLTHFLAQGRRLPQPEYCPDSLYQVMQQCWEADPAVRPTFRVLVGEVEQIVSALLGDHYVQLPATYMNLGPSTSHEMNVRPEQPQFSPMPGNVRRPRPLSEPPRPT

As usually defined, the koff is the first-order rate constant of dissociation. In assay [1], “EGF-bound EGFR (QD-conjugated EGF-biotin on endogenous EGFR of live A431^RON cells) (from UniProt P00533 25-1210) (complex)” showed an average lifetime of 2 s and a koff of 0.49 s⁻¹.

Regarding “HA-tagged RON (Recepteur d'Origine Nantais, MST1R) stably expressed in A431 cells (receptor)”, in assay [2], the average lifetime is 5.5 s and the dissociation rate constant (koff) was 0.18 s⁻¹.
